In patent US20200018762:

Columns and labels:
[1] = molecular target: FLAG-tagged H2B (UniProt P62807)
[2] = molecular target: FLAG-tagged Y37F mutant-H2B (UniProt P62807)
[3] = test system: biotinylated H4-derived unphosphorylated peptide TVTAMDVVYALKRQGRT
[4] = test system: biotinylated human histone H2B derived peptide KRSRKESYSVYVYKVL
[5] = test system: H2B peptide spanning Tyr37 (Tyr37-H2B; SRKESYSVYVYK)
[6] = test system: H2B peptide with a Tyr37-to-Phe mutation (SRKESFSVYVYK)
[7] = test system: purified human H2A recombinant protein (NEB)
[8] = molecular target: purified human H2B recombinant protein (NEB) (UniProt P62807)
[9] = molecular target: purified human H3 recombinant protein (NEB) (UniProt P68431)
[10] = molecular target: purified human H4 recombinant protein (NEB) (UniProt P62805)

Sequence of recombinant GST-WEE1 protein (Invitrogen) (chain, as listed by the source): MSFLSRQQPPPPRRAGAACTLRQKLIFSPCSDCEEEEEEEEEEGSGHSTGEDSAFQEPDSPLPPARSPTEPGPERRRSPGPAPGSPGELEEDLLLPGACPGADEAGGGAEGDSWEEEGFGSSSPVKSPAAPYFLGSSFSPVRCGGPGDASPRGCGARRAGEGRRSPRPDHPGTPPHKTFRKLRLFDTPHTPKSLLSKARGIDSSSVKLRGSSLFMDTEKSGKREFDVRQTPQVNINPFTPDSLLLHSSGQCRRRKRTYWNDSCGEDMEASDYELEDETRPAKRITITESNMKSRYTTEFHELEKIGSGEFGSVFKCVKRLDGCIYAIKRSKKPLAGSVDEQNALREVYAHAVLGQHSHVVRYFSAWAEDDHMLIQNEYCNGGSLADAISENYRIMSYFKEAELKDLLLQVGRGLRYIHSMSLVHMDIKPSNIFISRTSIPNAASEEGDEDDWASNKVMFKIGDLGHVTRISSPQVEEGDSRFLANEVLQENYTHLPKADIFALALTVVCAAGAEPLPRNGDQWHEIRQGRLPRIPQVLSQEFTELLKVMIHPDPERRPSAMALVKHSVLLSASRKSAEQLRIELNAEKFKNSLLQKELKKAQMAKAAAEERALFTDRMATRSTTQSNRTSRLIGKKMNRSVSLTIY
Sequence of Myc-tagged WEE1 (WT) (chain, as listed by the source): as above
Sequence of purified WEE1 protein (Examples 5 and 7) (chain, as listed by the source): as above

Myc-tagged WEE1 (WT)
coexpression in MEFs, immunoprecipitation with pTyr37-H2B antibodies, FLAG immunoblot [1]: the WT-WEE1 specifically phosphorylated H2B
coexpression in MEFs, immunoprecipitation with pTyr37-H2B antibodies, FLAG immunoblot [2]: failed to phosphorylate Y37F mutant (FIG. 13G)

purified WEE1 protein (Examples 5 and 7)
in vitro kinase assay on immobilized peptide, ELISA with pY88-H4 antibodies [3]: Incubation of H4 peptide with WEE1 and Ack1 protein resulted in robust H4 Tyr88-phosphorylation
Peptide Immunosandwich Assay (kinase reaction on immobilized peptide, detection with pY37-H2B antibodies, OD 450 nm) [4]: Purified WEE1 exhibited robust H2B Tyr37-phosphorylation and a significant decrease in pY37-H2B levels was observed upon incubation with 5 uM of MK-1775 (FIG. 34)

recombinant GST-WEE1 protein (Invitrogen)
in vitro kinase reaction with peptide, dot blot with pTyr37-H2B antibody [5]: WEE1 phosphorylated H2B peptide
in vitro kinase reaction with peptide, dot blot with pTyr37-H2B antibody [6]: Y37F mutant peptide was not phosphorylated
in vitro kinase assay, immunoblot with pTyr37-H2B antibody [7]: WEE1 specifically phosphorylated H2B and failed to phosphorylate other three core histones, H2A, H3 and H4 (FIG. 13E)
in vitro kinase assay, immunoblot with pTyr37-H2B antibody [8]: When purified WEE1 and H2B were incubated, H2B was Tyr37-phosphorylated, however, WEE1 inhibitor abrogated H2B pTyr37-phosphorylation (FIG. 13D)
in vitro kinase assay, immunoblot with pTyr37-H2B antibody [9]: WEE1 specifically phosphorylated H2B and failed to phosphorylate other three core histones, H2A, H3 and H4 (FIG. 13E)
in vitro kinase assay, immunoblot with pTyr37-H2B antibody [10]: WEE1 specifically phosphorylated H2B and failed to phosphorylate other three core histones, H2A, H3 and H4 (FIG. 13E)
